Among the targets are MMP9 (human, UniProt P14780 107-707, limits assumed); MMP8 (human, UniProt P22894 101-467, limits assumed); MMP13 (human, UniProt P45452 104-471, limits assumed); MMP12 (human, UniProt P39900 106-470, limits assumed); MMP3 (human, UniProt P08254 100-477, limits assumed); bovine trypsin (bovine, UniProt P00760 24-246); Elastase; chymotrypsin.
What all share (assay): cell-based or functional assay
A further test addresses T1, MMP2 (human, UniProt P08253 110-660, limits assumed).
T1 sequence (looked up): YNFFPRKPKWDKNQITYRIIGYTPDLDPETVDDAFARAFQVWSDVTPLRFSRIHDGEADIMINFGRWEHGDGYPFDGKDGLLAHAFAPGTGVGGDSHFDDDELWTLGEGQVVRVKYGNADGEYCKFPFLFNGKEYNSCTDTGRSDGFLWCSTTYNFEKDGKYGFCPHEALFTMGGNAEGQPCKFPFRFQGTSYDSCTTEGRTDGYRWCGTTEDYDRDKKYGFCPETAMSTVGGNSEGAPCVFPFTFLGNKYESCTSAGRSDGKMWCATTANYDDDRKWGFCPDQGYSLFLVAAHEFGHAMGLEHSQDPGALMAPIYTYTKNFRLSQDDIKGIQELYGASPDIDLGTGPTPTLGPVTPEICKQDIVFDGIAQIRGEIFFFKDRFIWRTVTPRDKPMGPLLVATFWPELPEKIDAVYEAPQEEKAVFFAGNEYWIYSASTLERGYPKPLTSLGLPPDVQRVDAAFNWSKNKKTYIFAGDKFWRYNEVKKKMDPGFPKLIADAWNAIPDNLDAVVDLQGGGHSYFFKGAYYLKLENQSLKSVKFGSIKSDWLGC

The target of the next test is T2, MMP1 (human, UniProt P03956 100-469, limits assumed).
T2 sequence (looked up): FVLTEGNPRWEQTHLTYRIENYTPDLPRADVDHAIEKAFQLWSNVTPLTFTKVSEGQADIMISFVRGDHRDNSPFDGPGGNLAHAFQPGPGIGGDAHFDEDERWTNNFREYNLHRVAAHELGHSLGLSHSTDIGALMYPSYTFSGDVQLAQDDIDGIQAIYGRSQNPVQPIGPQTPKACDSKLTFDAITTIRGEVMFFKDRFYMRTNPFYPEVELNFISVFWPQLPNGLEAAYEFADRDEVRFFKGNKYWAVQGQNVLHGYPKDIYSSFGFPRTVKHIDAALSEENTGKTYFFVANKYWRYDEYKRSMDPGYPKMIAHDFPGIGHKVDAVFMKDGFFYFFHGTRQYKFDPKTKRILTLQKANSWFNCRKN

The target in the next test is T3, ADAMTS4 (human, UniProt O75173 213-685, limits assumed).
T3 sequence (looked up): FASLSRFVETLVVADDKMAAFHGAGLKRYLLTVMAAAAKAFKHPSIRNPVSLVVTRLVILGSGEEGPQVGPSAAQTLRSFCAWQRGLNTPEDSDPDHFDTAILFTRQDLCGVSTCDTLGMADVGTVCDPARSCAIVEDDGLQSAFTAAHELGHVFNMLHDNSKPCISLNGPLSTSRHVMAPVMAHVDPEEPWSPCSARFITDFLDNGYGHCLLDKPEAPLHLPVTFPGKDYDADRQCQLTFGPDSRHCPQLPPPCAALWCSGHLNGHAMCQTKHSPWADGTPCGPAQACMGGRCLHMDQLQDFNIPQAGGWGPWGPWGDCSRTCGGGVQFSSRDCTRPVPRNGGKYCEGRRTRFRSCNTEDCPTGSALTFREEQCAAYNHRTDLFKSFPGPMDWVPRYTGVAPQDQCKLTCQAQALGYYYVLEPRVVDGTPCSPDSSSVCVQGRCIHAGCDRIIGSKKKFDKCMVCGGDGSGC

The target in the next test is T4, ADAMTS5 (human, UniProt Q9UNA0 262-622, limits assumed).
T4 sequence (looked up): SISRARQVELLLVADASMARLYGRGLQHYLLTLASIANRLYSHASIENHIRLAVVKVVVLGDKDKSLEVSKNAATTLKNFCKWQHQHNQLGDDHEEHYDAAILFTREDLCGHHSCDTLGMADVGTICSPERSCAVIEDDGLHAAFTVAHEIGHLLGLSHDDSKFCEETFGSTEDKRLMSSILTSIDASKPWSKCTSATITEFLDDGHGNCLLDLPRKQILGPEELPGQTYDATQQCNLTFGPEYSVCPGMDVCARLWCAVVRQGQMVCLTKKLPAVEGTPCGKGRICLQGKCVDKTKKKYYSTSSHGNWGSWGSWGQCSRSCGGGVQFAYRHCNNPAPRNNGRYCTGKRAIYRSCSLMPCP

The target in another test is T5, Cathepsin G (UniProt P08311 21-244).
T5 sequence (looked up): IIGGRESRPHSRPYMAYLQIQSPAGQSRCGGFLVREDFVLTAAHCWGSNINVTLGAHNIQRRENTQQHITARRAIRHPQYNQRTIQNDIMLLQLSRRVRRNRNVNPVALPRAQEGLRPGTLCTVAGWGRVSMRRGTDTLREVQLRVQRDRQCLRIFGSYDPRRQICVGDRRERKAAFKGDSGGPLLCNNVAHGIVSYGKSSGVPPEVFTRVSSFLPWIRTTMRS

Sequence of MMP8 (P22894 101-467 limits assumed): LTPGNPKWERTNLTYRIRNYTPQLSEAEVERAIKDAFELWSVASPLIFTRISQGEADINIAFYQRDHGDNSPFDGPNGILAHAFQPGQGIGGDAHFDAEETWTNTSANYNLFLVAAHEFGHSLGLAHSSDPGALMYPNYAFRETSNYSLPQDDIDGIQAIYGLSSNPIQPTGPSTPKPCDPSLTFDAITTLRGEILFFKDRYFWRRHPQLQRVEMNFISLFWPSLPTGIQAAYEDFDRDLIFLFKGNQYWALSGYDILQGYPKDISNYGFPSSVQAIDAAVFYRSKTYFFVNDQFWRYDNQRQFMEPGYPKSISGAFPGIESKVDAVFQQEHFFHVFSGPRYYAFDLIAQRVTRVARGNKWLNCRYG
Sequence of MMP9 (P14780 107-707 limits assumed): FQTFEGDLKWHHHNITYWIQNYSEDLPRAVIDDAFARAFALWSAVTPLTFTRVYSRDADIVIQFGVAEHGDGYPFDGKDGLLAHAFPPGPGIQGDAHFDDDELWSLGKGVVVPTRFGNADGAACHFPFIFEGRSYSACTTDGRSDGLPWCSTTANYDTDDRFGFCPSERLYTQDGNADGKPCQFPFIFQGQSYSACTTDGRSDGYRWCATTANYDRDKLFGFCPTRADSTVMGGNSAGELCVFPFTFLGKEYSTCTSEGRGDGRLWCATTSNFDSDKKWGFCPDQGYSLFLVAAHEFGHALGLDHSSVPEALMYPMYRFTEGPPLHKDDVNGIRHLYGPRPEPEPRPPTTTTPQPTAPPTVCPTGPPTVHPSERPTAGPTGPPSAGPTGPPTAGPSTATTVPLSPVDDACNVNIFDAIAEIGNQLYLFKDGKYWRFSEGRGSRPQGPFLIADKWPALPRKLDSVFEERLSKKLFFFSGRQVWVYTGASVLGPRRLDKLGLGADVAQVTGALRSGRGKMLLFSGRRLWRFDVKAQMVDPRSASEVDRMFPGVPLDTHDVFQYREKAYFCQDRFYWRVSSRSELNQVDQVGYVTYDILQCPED
Sequence of bovine trypsin (P00760 24-246): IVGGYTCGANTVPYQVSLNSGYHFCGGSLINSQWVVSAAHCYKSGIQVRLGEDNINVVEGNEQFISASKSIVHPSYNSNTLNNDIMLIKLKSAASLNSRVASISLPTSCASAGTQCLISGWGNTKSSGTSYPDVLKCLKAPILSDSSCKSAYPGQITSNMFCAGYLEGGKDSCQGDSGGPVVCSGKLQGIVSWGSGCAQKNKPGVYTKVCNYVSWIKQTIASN
Sequence of MMP12 (P39900 106-470 limits assumed): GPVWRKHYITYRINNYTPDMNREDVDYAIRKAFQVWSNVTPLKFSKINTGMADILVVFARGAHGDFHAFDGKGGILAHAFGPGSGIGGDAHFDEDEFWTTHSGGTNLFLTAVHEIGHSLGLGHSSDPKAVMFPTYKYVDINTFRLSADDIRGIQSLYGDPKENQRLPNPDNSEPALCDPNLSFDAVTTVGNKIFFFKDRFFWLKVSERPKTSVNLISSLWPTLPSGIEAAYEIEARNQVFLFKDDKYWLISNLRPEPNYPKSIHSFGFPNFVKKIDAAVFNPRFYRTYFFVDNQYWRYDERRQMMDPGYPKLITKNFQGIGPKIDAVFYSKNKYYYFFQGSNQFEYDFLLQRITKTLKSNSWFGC
Sequence of MMP3 (P08254 100-477 limits assumed): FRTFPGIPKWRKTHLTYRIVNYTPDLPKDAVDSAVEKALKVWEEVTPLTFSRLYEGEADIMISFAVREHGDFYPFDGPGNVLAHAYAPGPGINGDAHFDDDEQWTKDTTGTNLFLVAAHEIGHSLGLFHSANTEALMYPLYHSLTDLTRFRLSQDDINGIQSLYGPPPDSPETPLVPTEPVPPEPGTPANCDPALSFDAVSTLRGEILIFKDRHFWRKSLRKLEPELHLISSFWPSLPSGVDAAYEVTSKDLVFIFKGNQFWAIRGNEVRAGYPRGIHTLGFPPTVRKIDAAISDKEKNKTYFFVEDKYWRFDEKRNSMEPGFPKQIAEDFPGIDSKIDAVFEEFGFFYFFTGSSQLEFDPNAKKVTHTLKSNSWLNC

B1: Variant A2M, bait region SEQ ID NO 84 (other)
chain: SVSGKPQYMVLVPSLLHTETTEKGCVLLSYLNETVTVSASLESVRGNRSLFTDLEAENDVLHCVAFAVPKSSSNEEVMFLTVQVKGPTQEFKKRTTVMVKNEDSLVFVQTDKSIYKPGQTVKFRVVSMDENFHPLNELIPLVYIQDPKGNRIAQWQSFQLEGGLKQFSFPLSSEPFQGSYKVVVQKKSGGRTEHPFTVEEFVLPKFEVQVTVPKIITILEEEMNVSVCGLYTYGKPVPGHVTVSICRKYSDASDCHGEDSQAFCEKFSGQLNSHGCFYQQVKTKVFQLKRKEYEMKLHTEAQIQEEGTVVELTGRQSSEITRTITKLSFVKVDSHFRQGIPFFGQVRLVDGKGVPIPNKVIFIRGNEANYYSNATTDEHGLVQFSINTTNVMGTSLTVRVNYKDRSPCYGYQWVSEEHEEAHHTAYLVFSPSKSFVHLEPMSHELPCGHTQTVQAHYILNGGTLLGLKKLSFYYLIMAKGGIVRTGTHGLLVKQEDMKGHFSISIPVKSDIAPVARLLIYAVLPTGDVIGDSAKYDVENCLANKVDLSFSPSQSLPASHAHLRVTAAPQSVCALRAVDQSVLLMKPDAELSASSVYNLLPEKDLTGFPGPLNDQDDEDCINRHNVYINGITYTPVSSTNEKDMYSFLEDMGLKAFTNSKIRKPKMCPQLEQYEMHGPEGLRVGKEEEGLGSIPENFFGVSELEGRGSKLRKYFPETWIWDLVVVNSAGVAEVGVTVPDTITEWKAGAFCLSEDAGLGISSTASLRAFQPFFVELTMPYSVIRGEAFTLKATVLNYLPKCIRVSVQLEASPAFLAVPVEKEQAPHCICANGRQTVSWAVTPKSLGNVNFTVSAEALESQELCGTEVPSVPEHGRKDTVIKPLLVEPEGLEKETTFNSLLCPSGGEVSEELSLKLPPNVVEESARASVSVLGDILGSAMQNTQNLLQMPYGCGEQNMVLFAPNIYVLDYLNETQQLTPEIKSKAIGYLNTGYQRQLNYKHYDGSYSTFGERYGRNQGNTWLTAFVLKTFAQARAYIFIDEAHITQALIWLSQRQKDNGCFRSSGSLLNNAIKGGVEDEVTLSAYITIALLEIPLTVTHPVVRNALFCLESAWKTAQEGDHGSHVYTKALLAYAFALAGNQDKRKEVLKSLNEEAVKKDNSVHWERPQKPKAPVGHFYEPQAPSAEVEMTSYVLLAYLTAQPAPTSEDLTSATNIVKWITKQQNAQGGFSSTQDTVVALHALSKYGAATFTRTGKAAQVTIQSSGTFSSKFQVDNNNRLLLQQVSLPELPGEYSMKVTGEGCVYLQTSLKYNILPEKEEFPFALGVQTLPQTCDEPKAHTSFQISLSVSYTGSRSASNMAIVDVKMVSGFIPLKPTVKMLERSNHVSRTEVSSNHVLIYLDKVSNQTLSLFFTVLQDVPVRDLKPAIVKVYDYYETDEFAIAEYNAPCSKDLGNADYKDDDDKGASHHHHHH
On to B1, for which the “Protease Inhibition (% of WT)” value was 120 % of WT in the test with MMP2; 60 % of WT with MMP9; 350 % of WT with MMP8; 720 % of WT in the test with MMP13; 180 % of WT in the test with MMP1; 100 % of WT with MMP12. Also, the “Protease Inhibition (% of WT)” value was 70 % of WT with ADAMTS4; 250 % of WT with ADAMTS5; 170 % of WT with MMP3; 100 % of WT in the test with bovine trypsin; 75 % of WT with Elastase; 71 % of WT with chymotrypsin.

B2: Variant A2M, bait region SEQ ID NO 130 (other)
chain: SVSGKPQYMVLVPSLLHTETTEKGCVLLSYLNETVTVSASLESVRGNRSLFTDLEAENDVLHCVAFAVPKSSSNEEVMFLTVQVKGPTQEFKKRTTVMVKNEDSLVFVQTDKSIYKPGQTVKFRVVSMDENFHPLNELIPLVYIQDPKGNRIAQWQSFQLEGGLKQFSFPLSSEPFQGSYKVVVQKKSGGRTEHPFTVEEFVLPKFEVQVTVPKIITILEEEMNVSVCGLYTYGKPVPGHVTVSICRKYSDASDCHGEDSQAFCEKFSGQLNSHGCFYQQVKTKVFQLKRKEYEMKLHTEAQIQEEGTVVELTGRQSSEITRTITKLSFVKVDSHFRQGIPFFGQVRLVDGKGVPIPNKVIFIRGNEANYYSNATTDEHGLVQFSINTTNVMGTSLTVRVNYKDRSPCYGYQWVSEEHEEAHHTAYLVFSPSKSFVHLEPMSHELPCGHTQTVQAHYILNGGTLLGLKKLSFYYLIMAKGGIVRTGTHGLLVKQEDMKGHFSISIPVKSDIAPVARLLIYAVLPTGDVIGDSAKYDVENCLANKVDLSFSPSQSLPASHAHLRVTAAPQSVCALRAVDQSVLLMKPDAELSASSVYNLLPEKDLTGFPGPLNDQDDEDCINRHNVYINGITYTPVSSTNEKDMYSFLEDMGLKAFTNSKIRKPKMCPQLEQYEMHGPSEDLVVQIEGEGEGEGIPENFFGVEAIPMSIPTVEEPHTKLRKYFPETWIWDLVVVNSAGVAEVGVTVPDTITEWKAGAFCLSEDAGLGISSTASLRAFQPFFVELTMPYSVIRGEAFTLKATVLNYLPKCIRVSVQLEASPAFLAVPVEKEQAPHCICANGRQTVSWAVTPKSLGNVNFTVSAEALESQELCGTEVPSVPEHGRKDTVIKPLLVEPEGLEKETTFNSLLCPSGGEVSEELSLKLPPNVVEESARASVSVLGDILGSAMQNTQNLLQMPYGCGEQNMVLFAPNIYVLDYLNETQQLTPEIKSKAIGYLNTGYQRQLNYKHYDGSYSTFGERYGRNQGNTWLTAFVLKTFAQARAYIFIDEAHITQALIWLSQRQKDNGCFRSSGSLLNNAIKGGVEDEVTLSAYITIALLEIPLTVTHPVVRNALFCLESAWKTAQEGDHGSHVYTKALLAYAFALAGNQDKRKEVLKSLNEEAVKKDNSVHWERPQKPKAPVGHFYEPQAPSAEVEMTSYVLLAYLTAQPAPTSEDLTSATNIVKWITKQQNAQGGFSSTQDTVVALHALSKYGAATFTRTGKAAQVTIQSSGTFSSKFQVDNNNRLLLQQVSLPELPGEYSMKVTGEGCVYLQTSLKYNILPEKEEFPFALGVQTLPQTCDEPKAHTSFQISLSVSYTGSRSASNMAIVDVKMVSGFIPLKPTVKMLERSNHVSRTEVSSNHVLIYLDKVSNQTLSLFFTVLQDVPVRDLKPAIVKVYDYYETDEFAIAEYNAPCSKDLGNADYKDDDDKGASHHHHHH
As for B2, the “Protease Inhibition (% of WT)” value is 109 % of WT with MMP2; 100 % of WT with MMP9; 180 % of WT with MMP8; 146 % of WT with MMP13; 283 % of WT with MMP1; 124 % of WT with MMP12. Moreover, the “Protease Inhibition (% of WT)” value with ADAMTS4 was 110 % of WT; in the test with ADAMTS5 it was 211 % of WT; with bovine trypsin it was 250 % of WT; with Elastase, 103 % of WT; with chymotrypsin, 100 % of WT; with Cathepsin G it was 311 % of WT.

The values above are taken from US20230250154A1 (CYTONICS, published 2023).
